Among the data in PMC5095173, “Disulfide-activated protein kinase G Iα regulates cardiac diastolic relaxation and fine-tunes the Frank–Starling response” (Nature Communications, 2016) are stoichiometry N values, retold here.

This experiment deals with T1, phospholamban (mouse myocardium) (mouse (endogenous in mouse heart)), P61014.
T1 chain: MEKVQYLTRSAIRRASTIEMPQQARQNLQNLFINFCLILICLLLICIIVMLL
The experiment is described as follows: SDS-PAGE of samples not boiled, with immunoblot; mouse heart homogenate, samples not boiled before western blotting for total PLN; WT and C42S PKGIα KI hearts. The settings on record: remark: other sources report otherwise. (Immunoblotting shows a protein as a band on a membrane.)

B1: phospholamban (mouse myocardium), P61014 1-52 (natural protein)
chain: MEKVQYLTRSAIRRASTIEMPQQARQNLQNLFINFCLILICLLLICIIVMLL
One may read the stoichiometry N as the number of molecules, sites or subunits per partner or assembly. With B1, the stoichiometry N stood at 5.
